Data on one substance can be found in patent publication US20040052796A1.

The target of the experiment is p185HER-2 (HER-2/neu, erbB-2 receptor tyrosine kinase) (human) (UniProt P04626). The experiment in a line: method not described; binding to cell surface p185HER-2 (statement in the summary).

As a reminder, the Kd is the concentration at which binding is half-saturated. A lower Kd goes with a tighter complex. Substance “p68HER-2 (herstatin), product of the alternative HER-2 transcript with retained intron 8 (ligand)” returned a Kd of 14 nM. In other words, the double-digit nanomolar range.
